Tests used:
mAgrp promoter = test: NHR-promoter luciferase screen, mAgrp promoter; assay type: cell-based, mouse; details: for Results of assays of transcription factor (+/- ligand) with mAgrp: Table 6d, luciferase activity relative to control (control = 1.00); for Luc. act., normalized to lacZ / Normalized Luc. act., normalized to control: mAgrp promoter, HR component with or without ligand; for Normalized Luc. act., normalized to control: relative to control
Procedure, shortened: (§1)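 CV-1 cells were co-transfected with 50 ng NHR (homodimer or NHR/RXR heterodimer), 100 ng promoter-luciferase construct and 50 ng LacZ. Luciferase was normalized to LacZ and to a no-NHR/no-ligand control.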

mPOMC promoter = test: NHR-promoter luciferase screen, mPOMC promoter; assay type: cell-based, mouse; details: for Results of assays of transcription factor (+/- ligand) with mPOMC: Table 6d, luciferase activity relative to control (control = 1.00); for Luc. act., normalized to lacZ / Normalized Luc. act., normalized to control: mPOMC promoter, HR component with or without ligand; for Normalized Luc. act., normalized to control: relative to control
Procedure, shortened: as §1

mADRP promoter = test: NHR-promoter luciferase screen, mADRP promoter; assay type: cell-based, mouse; details: for Luc. act., normalized to lacZ / Normalized Luc. act., normalized to control: ADRP promoter, HR/ligand component; for mADRP promoter reporter activity: transcription factor +/- ligand, control = 1.00
Procedure, shortened: as §1

mAdiponectin promoter = test: NHR-promoter luciferase screen, mAdiponectin promoter; assay type: cell-based, mouse; details: for Luc. act., normalized to lacZ / Normalized Luc. act., normalized to control: Adiponectin, HR component without or with its ligand; for mAdiponectin promoter reporter activity: transcription factor +/- ligand, control = 1.00
Procedure, shortened: as §1

RevErba promoter = test: NHR-promoter luciferase screen, RevErba (RVRa) promoter; assay type: cell-based; set-up: key to mRevErba promoter reporter activity / Normalized Luc. act., normalized to control: luciferase activity normalized to lacZ and to control (no NHR/ligand); details: for Luc. act., normalized to lacZ / Normalized Luc. act., normalized to control: HR component without or with ligand; for normalized Luc. act. on a logarithmic scale (column without head, Table 33): log10 of activity normalized to control; for mRevErba promoter reporter activity: transcription factor +/- ligand, control = 1.00
Procedure, shortened: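 Reporter readout: RevErbα promoter-driven luciferase, corrected for LacZ transfection efficiency and expressed relative to a no-receptor or no-ligand control. Receptors (V5H6-tagged, pcDNA3.1), alone or with RXR, plus any ligand, were expressed in CV-1 cells.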

Row | Molecule | Results of assays of transcription factor (+/- ligand) with mAgrp (mAgrp promoter) | Luc. act., normalized to lacZ (mAgrp promoter) | Normalized Luc. act., normalized to control (mAgrp promoter) | Results of assays of transcription factor (+/- ligand) with mPOMC (mPOMC promoter) | Luc. act., normalized to lacZ (mPOMC promoter) | Normalized Luc. act., normalized to control (mPOMC promoter) | Luc. act., normalized to lacZ (mADRP promoter) | Normalized Luc. act., normalized to control (mADRP promoter) | mADRP promoter reporter activity (mADRP promoter) | Luc. act., normalized to lacZ (mAdiponectin promoter) | Normalized Luc. act., normalized to control (mAdiponectin promoter) | mAdiponectin promoter reporter activity (mAdiponectin promoter) | Luc. act., normalized to lacZ (RevErba promoter; RVRa promoter) | Normalized Luc. act., normalized to control (RevErba promoter; RVRa promoter) | negative reciprocal of normalized Luc. act. (fold repression; Table 33) (RevErba promoter; RVRa promoter, given only where activity is below control) | normalized Luc. act. on a logarithmic scale (column without head, Table 33) (RevErba promoter; RVRa promoter) | mRevErba promoter reporter activity (RevErba promoter)
1 | PPARd: Peroxisome proliferator activated receptor δ (NR1C2), cDNA driver (protein, UniProt Q03181 1-441, looked up) Peroxisome …: MEQPQEEAPEVREEEEKEEVAEAEGAPELNGGPQHALPSSSYTDLSRSSSPPSLLDQLQMGCDGASCGSLNMECRVCGDKASGFHYGVHACEGCKGFFRRTIRMKLEYEKCERSCKIQKKNRNKCQYCRFQKCLALGMSHNAIRFGRMPEAEKRKLVAGLTANEGSQYNPQVADLKAFSKHIYNAYLKNFNMTKKKARSILTGKASHTAPFVIHDIETLWQAEKGLVWKQLVNGLPPYKEISVHVFYRCQCTTVETVRELTEFAKSIPSFSSLFLNDQVTLLKYGVHEAIFAMLASIVNKDGLLVANGSGFVTREFLRSLRKPFSDIIEPKFEFAVKFNALELDDSDLALFIAAIILCGDRPGLMNVPRVEAIQDTILRALEFHLQANHPDAQYLFPKLLQKMADLRQLVTEHAQMMQRIKKTETETSLHPLLQEIYKDMY | 1.32 | 52.4 | 1.3 | 1.02 | 70.0 | 1.0 | 694.0 | 1.4 | 1.39 | 89.4 | 1.4 | 1.42 | 25.3 | 0.9 | −1.106 | −0.04 | 0.90
2 | FXR: Farnesoid X Receptor (NR1H4), cDNA driver (protein, UniProt Q96RI1 1-486, looked up) Bile acid receptor: MVMQFQGLENPIQISPHCSCTPSGFFMEMMSMKPAKGVLTEQVAGPLGQNLEVEPYSQYSNVQFPQVQPQISSSSYYSNLGFYPQQPEEWYSPGIYELRRMPAETLYQGETEVAEMPVTKKPRMGASAGRIKGDELCVVCGDRASGYHYNALTCEGCKGFFRRSITKNAVYKCKNGGNCVMDMYMRRKCQECRLRKCKEMGMLAECMYTGLLTEIQCKSKRLRKNVKQHADQTVNEDSEGRDLRQVTSTTKSCREKTELTPDQQTLLHFIMDSYNKQRMPQEITNKILKEEFSAEENFLILTEMATNHVQVLVEFTKKLPGFQTLDHEDQIALLKGSAVEAMFLRSAEIFNKKLPSGHSDLLEERIRNSGISDEYITPMFSFYKSIGELKMTQEEYALLTAIVILSPDRQYIKDREAVEKLQEPLLDVLQKLCKIHQPENPQHFACLLGRLTELRTFNHHHAEMLMSWRVNDHKFTPLLCEIWDVQ | 1.14 | 45.1 | 1.1 | 1.20 | 82.5 | 1.2 | 658.3 | 1.3 | 1.32 | 62.6 | 1.0 | 1.00 | 31.7 | 1.1 | – | 0.05 | 1.13
3 | RARg: Retinoic acid receptor γ (NR1B3), nuclear hormone receptor cDNA driver (protein, UniProt P13631 1-454, looked up) Retinoic acid receptor gamma: MATNKERLFAAGALGPGSGYPGAGFPFAFPGALRGSPPFEMLSPSFRGLGQPDLPKEMASLSVETQSTSSEEMVPSSPSPPPPPRVYKPCFVCNDKSSGYHYGVSSCEGCKGFFRRSIQKNMVYTCHRDKNCIINKVTRNRCQYCRLQKCFEVGMSKEAVRNDRNKKKKEVKEEGSPDSYELSPQLEELITKVSKAHQETFPSLCQLGKYTTNSSADHRVQLDLGLWDKFSELATKCIIKIVEFAKRLPGFTGLSIADQITLLKAACLDILMLRICTRYTPEQDTMTFSDGLTLNRTQMHNAGFGPLTDLVFAFAGQLLPLEMDDTETGLLSAICLICGDRMDLEEPEKVDKLQEPLLEALRLYARRRRPSQPYMFPRMLMKITDLRGISTKGAERAITLKMEIPGPMPPLIREMLENPEMFEDDSSQPGPHPNASSEDEVPGGQGKGGLKSPA | 2.06 | 81.9 | 2.1 | 1.53 | 105.9 | 1.5 | 765.4 | 1.5 | 1.54 | 62.6 | 1.0 | 1.00 | 39.6 | 1.4 | – | 0.15 | 1.42
4 | RARa: Retinoic acid receptor α (NR1B1), nuclear hormone receptor cDNA driver (protein, UniProt P10276 1-462, looked up) Retinoic acid receptor alpha: MASNSSSCPTPGGGHLNGYPVPPYAFFFPPMLGGLSPPGALTTLQHQLPVSGYSTPSPATIETQSSSSEEIVPSPPSPPPLPRIYKPCFVCQDKSSGYHYGVSACEGCKGFFRRSIQKNMVYTCHRDKNCIINKVTRNRCQYCRLQKCFEVGMSKESVRNDRNKKKKEVPKPECSESYTLTPEVGELIEKVRKAHQETFPALCQLGKYTTNNSSEQRVSLDIDLWDKFSELSTKCIIKTVEFAKQLPGFTTLTIADQITLLKAACLDILILRICTRYTPEQDTMTFSDGLTLNRTQMHNAGFGPLTDLVFAFANQLLPLEMDDAETGLLSAICLICGDRQDLEQPDRVDMLQEPLLEALKVYVRKRRPSRPHMFPKMLMKITDLRSISAKGAERVITLKMEIPGSMPPLIQEMLENSEGLDTLSGQPGGGGRDGGGLAPPPGSCSPSLSPSSNRSSPATHSP | 2.05 | 81.1 | 2.0 | 1.43 | 98.5 | 1.4 | 628.8 | 1.3 | 1.26 | 78.6 | 1.3 | 1.25 | 34.6 | 1.2 | – | 0.09 | 1.24
5 | PXR: Pregnane X Receptor (NR1I2), cDNA driver (protein, UniProt O75469 1-434, looked up) Nuclear receptor subfamily 1 …: MEVRPKESWNHADFVHCEDTESVPGKPSVNADEEVGGPQICRVCGDKATGYHFNVMTCEGCKGFFRRAMKRNARLRCPFRKGACEITRKTRRQCQACRLRKCLESGMKKEMIMSDEAVEERRALIKRKKSERTGTQPLGVQGLTEEQRMMIRELMDAQMKTFDTTFSHFKNFRLPGVLSSGCELPESLQAPSREEAAKWSQVRKDLCSLKVSLQLRGEDGSVWNYKPPADSGGKEIFSLLPHMADMSTYMFKGIISFAKVISYFRDLPIEDQISLLKGAAFELCQLRFNTVFNAETGTWECGRLSYCLEDTAGGFQQLLLEPMLKFHYMLKKLQLHEEEYVLMQAISLFSPDRPGVLQHRVVDQLQEQFAITLKSYIECNRPQPAHRFLFLKIMAMLTELRSINAQHTQRLLRIQDIHPFATPLMQELFGITGS | 1.51 | 60.0 | 1.5 | 1.30 | 89.4 | 1.3 | 1021.2 | 2.1 | 2.05 | 97.1 | 1.5 | 1.55 | 42.5 | 1.5 | – | 0.18 | 1.52
6 | RARb: Retinoic acid receptor β (NR1B2), nuclear hormone receptor cDNA driver (protein, UniProt P10826 1-455, looked up) Retinoic acid receptor beta: MTTSGHACPVPAVNGHMTHYPATPYPLLFPPVIGGLSLPPLHGLHGHPPPSGCSTPSPATIETQSTSSEELVPSPPSPLPPPRVYKPCFVCQDKSSGYHYGVSACEGCKGFFRRSIQKNMIYTCHRDKNCVINKVTRNRCQYCRLQKCFEVGMSKESVRNDRNKKKKETSKQECTESYEMTAELDDLTEKIRKAHQETFPSLCQLGKYTTNSSADHRVRLDLGLWDKFSELATKCIIKIVEFAKRLPGFTGLTIADQITLLKAACLDILILRICTRYTPEQDTMTFSDGLTLNRTQMHNAGFGPLTDLVFTFANQLLPLEMDDTETGLLSAICLICGDRQDLEEPTKVDKLQEPLLEALKIYIRKRRPSKPHMFPKILMKITDLRSISAKGAERVITLKMEIPGSMPPLIQEMLENSEGHEPLTPSSSGNTAEHSPSISPSSVENSGVSQSPLVQ | 2.27 | 90.2 | 2.3 | 1.85 | 127.4 | 1.8 | 799.4 | 1.6 | 1.61 | 81.2 | 1.3 | 1.29 | 45.6 | 1.6 | – | 0.21 | 1.63
